Laboratory results as given in patent US20170320966A1 (INDUSTRIAL TECHNOLOGY RESEARCH INSTITUTE, published 2017).

T1: human CD34 protein (Fc tag) (human, UniProt P28906 32-290)
T1 construct: Bought reagent (Sino Biological); also called recombinant human CD34 protein; immobilized human CD34 protein; not shown: Fc tag
T1 sequence (looked up): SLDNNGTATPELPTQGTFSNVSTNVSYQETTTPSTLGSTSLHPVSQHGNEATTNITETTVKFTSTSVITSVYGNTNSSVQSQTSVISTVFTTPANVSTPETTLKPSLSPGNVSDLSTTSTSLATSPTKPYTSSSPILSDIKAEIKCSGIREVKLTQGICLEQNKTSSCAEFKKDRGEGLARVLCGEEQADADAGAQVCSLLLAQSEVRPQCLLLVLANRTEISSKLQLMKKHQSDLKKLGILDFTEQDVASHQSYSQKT


Legend:
[1] = target: T1, human CD34 protein (Fc tag); test: SPR (Biacore X), CD34-Fc immobilized on chip, antibody injected, bivalent fit
Procedure: (§1) FIGS. 8A and 8B show the surface plasma resonance (SPR) analysis of interaction between human CD34 protein and chimeric QBEND/10 (A) or humanized QBEND/10 (B). Each antibody was injected and flowed over a surface chip with immobilized human CD34 protein at a flow rate of 30 μl/min. The resulting SPR sensorgrams were analyzed to determine the association/dissociation rate constants using the analysis program (BIAevaluation 3.2) provided by the manufacturer.
(§2) The binding kinetics of QBEND/10 antibodies to the human CD34 protein (Fc tag) (Sino Biological Incorporation, Beijing, China) were measured by performing the Biacore system (Biacore X, GE Healthcare, South Logan, Utah, USA) in the electrophoresis running buffer HBS-EP (10 mM HEPES, pH 7.4; 150 mM NaCl; 3 mM EDTA; 0.005% surfactant P20). In Brief, human CD34 protein was immobilized onto a CMS sensor chip via amine coupling to a level of 1200 response units (RU), and purified antibodies with different concentrations were injected at a flow rate of 30 μl/min. The surface was regenerated by injection of 15 μl of 10 mM glycine-HCl, pH 2.5. Then, the sensorgrams obtained at each concentration were evaluated by the program BIA Evaluation 3.2 (GE Healthcare, South Logan, Utah, USA). The binding data were fitted with a 2:1 (bivalent) binding model to calculate the affinity constant KD, which was defined as the ratio of dissociation rate (koff)/association rate (kₒₙ).

[2] = target: T1, human CD34 protein (Fc tag); test: SPR (Biacore X), CD34-Fc immobilized on chip
Procedure: as §1
as §2, with “The binding data were fitted with a 2:1 (bivalent) binding model to calculate the affinity constant KD, which was defined as the ratio of dissociation rate (koff)/association rate (kₒₙ).” left out

Kd [1] | koff [1] | kon [1] | fold increase of kon against chimeric QBEND/10 [2] | Binder
14.7 nM | 0.000262 s⁻¹ | 17800 M⁻¹ s⁻¹ |  | chimeric QBEND/10 (antibody, V domains shown, Expressed in NS0 cells; also called chimeric QBEND/10 antibody; parental antibody) VH: QVQLEQSGPELVKPGASVKMSCKASGYTFTSYVIHWVKQKPGQGLEWLGYTNPYNDVTKYNEKFKFKATLTSDKQSTTAYMEFSSLTSEDSAVYYCARYGGLWLYAMDYWGQGTSVTVSS VL: QLVLTQSSSASFSLGASAKLTCTLSSQHRTFTIEWYQQQPLKPPKYVMELRKDGSHSTGDGIPDRFSGSSSGADRYLSISNIQPEDEAIYICGVGNTIKEQFVYVFGGGTKVTVL
7.34 nM | 0.000268 s⁻¹ | 36600 M⁻¹ s⁻¹ | 2 fold | humanized QBEND/10 (antibody, V domains shown, Expressed in NS0 cells; also called resurfaced QBEND/10; humanized QBEND/10 antibody) VH: QVQLVQSGAELVKPGASVKMSCKASGYTFTSYVIHWVKQKPGQGLEWLGYTNPYNDVTKYNEKFKFKATLTSDTSSTTAYMEFSSLTSEDSAVYYCARYGGLWLYAMDYWGQGTSVTVSS VL: QLVLTQSPSASFSLGASAKLTCTLSSQHRTFTIEWYQQQPEKPPKYVMELRKDGSHSKGDGIPDRFSGSSSGADRYLSISSIQPEDEAIYICGVGNTIKEQFVYVFGTGTKVTVL
